pKd: −log10 of the molar value.
Test system: PCBP2
Test: competition EMSA

## poliovirus stem-loop IV RNA
  pKd: 7.82

From paper PMC2694229
